Changes are numbered by the printed parent chain. Numbers in names are those of the source. Like-named read-outs stand apart in the source and are kept apart here. Each block holds one binder with its values, some of them ahead of it.
Legend:
[1] = biological target: EphB2 SAM domain penta-mutant L954K/T959R/A961P/K966R/N969Y (human); assay: ITC
EphA2 SAM domain R950T = biological target: T1, EphA2 SAM domain R950T (human, UniProt P29317 897-976, R950T); assay: ITC
T1 sequence (looked up): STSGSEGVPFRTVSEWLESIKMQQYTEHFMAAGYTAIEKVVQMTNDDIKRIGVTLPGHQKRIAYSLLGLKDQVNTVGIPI

[2] = biological target: T2, EphA2 SAM domain (wild type) (human, UniProt P29317 897-976); assay: ITC
T2 sequence (looked up): T1 sequence (looked up) with T54R

EphA2 SAM domain K917D = biological target: T3, EphA2 SAM domain K917D (human, UniProt P29317 897-976, K917D); assay: ITC
T3 sequence (looked up): T1 sequence (looked up) with K21D, T54R

EphA2 SAM domain K956D = biological target: T4, EphA2 SAM domain K956D (human, UniProt P29317 897-976, K956D); assay: ITC
T4 sequence (looked up): T1 sequence (looked up) with T54R, K60D

EphA2 SAM domain K956E = biological target: T5, EphA2 SAM domain K956E (human, UniProt P29317 897-976, K956E); assay: ITC
T5 sequence (looked up): T1 sequence (looked up) with T54R, K60E

EphA2 SAM domain Y960N = biological target: T6, EphA2 SAM domain Y960N (human, UniProt P29317 897-976, Y960N); assay: ITC
T6 sequence (looked up): T1 sequence (looked up) with T54R, Y64N

EphA2 SAM domain K945L = biological target: T7, EphA2 SAM domain K945L (human, UniProt P29317 897-976, K945L); assay: ITC
T7 sequence (looked up): T1 sequence (looked up) with K49L, T54R

[3] = biological target: T8, EphA2 SAM domain K945L/Y960N (human, UniProt P29317 897-976, K945L | Y960N); assay: ITC
T8 sequence (looked up): T1 sequence (looked up) with K49L, T54R, Y64N

EphA1 SAM domain = biological target: T9, EphA1 SAM domain (human, UniProt P21709 906-976); assay: ITC
T9 sequence (looked up): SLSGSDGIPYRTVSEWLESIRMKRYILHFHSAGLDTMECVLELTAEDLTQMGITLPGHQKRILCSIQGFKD

EphA2 SAM domain R950E = biological target: T10, EphA2 SAM domain R950E (human, UniProt P29317 897-976, R950E); assay: ITC
T10 sequence (looked up): T1 sequence (looked up) with T54E

[4] = biological target: T2, EphA2 SAM domain (wild type); assay: NMR titration
EphA2 SAM domain K917E = biological target: T11, EphA2 SAM domain K917E (human, UniProt P29317 897-976, K917E); assay: ITC
T11 sequence (looked up): T1 sequence (looked up) with K21E, T54R

[5] = biological target: T2, EphA2 SAM domain (wild type); assay: ITC; remark: listed apart in the source
[6] = biological target: T2, EphA2 SAM domain (wild type); assay: ITC; remark: listed apart in the source
[7] = biological target: EphA2, full length, R950T, expressed in U87 cells (human, UniProt P29317 24-976, R950T); assay: co-IP

B1: SHIP2 SAM domain (wild type) (domain or fragment, human, UniProt O15357 1192-1258, looked up)
chain: RASGLGEAGMSAWLRAIGLERYEEGLVHNGWDDLEFLSDITEEDLEEAGVQDPAHKRLLLDTLQLSK
Kd [1]: 7.6 µM | fold enhancement of the interaction against the wild-type pair (EphA2 SAM domain R950T): ~4 fold | Kd [2]: 5.2 ± 1.2 µM | dH [2]: -2.5 kcal/mol | Kd (EphA2 SAM domain K917D): 9.1 ± 5.7 µM | dH (EphA2 SAM domain K917D): -0.85 kcal/mol | Kd (EphA2 SAM domain K956D): > 50 µM | Kd (EphA2 SAM domain K956E): > 50 µM | Kd (EphA2 SAM domain Y960N): 3.1 ± 0.4 µM | dH (EphA2 SAM domain Y960N): -3 kcal/mol | Kd (EphA2 SAM domain K945L): 1.3 ± 0.2 µM | dH (EphA2 SAM domain K945L): -2.1 kcal/mol | Kd [3]: 1.6 ± 0.6 µM | dH [3]: -2 kcal/mol | Kd (EphA1 SAM domain): 3.8 ± 0.4 µM | dH (EphA1 SAM domain): -3.6 kcal/mol | Kd (EphA2 SAM domain R950E): 1.7 ± 0.3 µM | dH (EphA2 SAM domain R950E): -2.4 kcal/mol | Kd [4]: ~10 µM

B4: SHIP2 SAM domain D1235K (domain or fragment, human, UniProt O15357 1192-1258, looked up)
chain: B1 chain with D44K
Kd (EphA2 SAM domain K956D): 7 ± 3 µM | dH (EphA2 SAM domain K956D): -0.8 kcal/mol

B7: SHIP2 SAM domain D1224K (domain or fragment, human, UniProt O15357 1192-1258, looked up)
chain: B1 chain with D33K
Kd (EphA2 SAM domain K917D): 10 ± 2 µM | dH (EphA2 SAM domain K917D): -2.5 kcal/mol

B8: SHIP2 (SH2-linked inositol phosphatase 2), endogenous in U87 cells (enzyme, human (endogenous in U87), UniProt O15357 1-1258, looked up)
chain: MASACGAPGPGGALGSQAPSWYHRDLSRAAAEELLARAGRDGSFLVRDSESVAGAFALCVLYQKHVHTYRILPDGEDFLAVQTSQGVPVRRFQTLGELIGLYAQPNQGLVCALLLPVEGEREPDPPDDRDASDGEDEKPPLPPRSGSTSISAPTGPSSPLPAPETPTAPAAESAPNGLSTVSHDYLKGSYGLDLEAVRGGASHLPHLTRTLATSCRRLHSEVDKVLSGLEILSKVFDQQSSPMVTRLLQQQNLPQTGEQELESLVLKLSVLKDFLSGIQKKALKALQDMSSTAPPAPQPSTRKAKTIPVQAFEVKLDVTLGDLTKIGKSQKFTLSVDVEGGRLVLLRRQRDSQEDWTTFTHDRIRQLIKSQRVQNKLGVVFEKEKDRTQRKDFIFVSARKREAFCQLLQLMKNKHSKQDEPDMISVFIGTWNMGSVPPPKNVTSWFTSKGLGKTLDEVTVTIPHDIYVFGTQENSVGDREWLDLLRGGLKELTDLDYRPIAMQSLWNIKVAVLVKPEHENRISHVSTSSVKTGIANTLGNKGAVGVSFMFNGTSFGFVNCHLTSGNEKTARRNQNYLDILRLLSLGDRQLNAFDISLRFTHLFWFGDLNYRLDMDIQEILNYISRKEFEPLLRVDQLNLEREKHKVFLRFSEEEISFPPTYRYERGSRDTYAWHKQKPTGVRTNVPSWCDRILWKSYPETHIICNSYGCTDDIVTSDHSPVFGTFEVGVTSQFISKKGLSKTSDQAYIEFESIEAIVKTASRTKFFIEFYSTCLEEYKKSFENDAQSSDNINFLKVQWSSRQLPTLKPILADIEYLQDQHLLLTVKSMDGYESYGECVVALKSMIGSTAQQFLTFLSHRGEETGNIRGSMKVRVPTERLGTRERLYEWISIDKDEAGAKSKAPSVSRGSQEPRSGSRKPAFTEASCPLSRLFEEPEKPPPTGRPPAPPRAAPREEPLTPRLKPEGAPEPEGVAAPPPKNSFNNPAYYVLEGVPHQLLPPEPPSPARAPVPSATKNKVAITVPAPQLGHHRHPRVGEGSSSDEESGGTLPPPDFPPPPLPDSAIFLPPSLDPLPGPVVRGRGGAEARGPPPPKAHPRPPLPPGPSPASTFLGEVASGDDRSCSVLQMAKTLSEVDYAPAGPARSALLPGPLELQPPRGLPSDYGRPLSFPPPRIRESIQEDLAEEAPCLQGGRASGLGEAGMSAWLRAIGLERYEEGLVHNGWDDLEFLSDITEEDLEEAGVQDPAHKRLLLDTLQLSK
fold binding against wild type EphA2 [7]: ~2 fold

Next, values leading:

Kd (EphA2 SAM domain K917E): 15.4 ± 1.9 µM | dH (EphA2 SAM domain K917E): -2 kcal/mol
B2: SHIP2 SAM domain E1226K (domain or fragment, human, UniProt O15357 1192-1258, looked up)
chain: B1 chain with E35K

fold enhancement of the interaction against the wild-type pair [5]: ~4 fold
B3: SHIP2 SAM domain H1219S (domain or fragment, human, UniProt O15357 1192-1258, looked up)
chain: B1 chain with H28S

Kd (EphA2 SAM domain R950E): 1.3 ± 0.1 µM | dH (EphA2 SAM domain R950E): -5 kcal/mol
B5: SHIP2 SAM domain H1219R (domain or fragment, human, UniProt O15357 1192-1258, looked up)
chain: B1 chain with H28R

Kd [6]: 4 ± 0.4 µM | dH [6]: -5.5 kcal/mol | Kd (EphA2 SAM domain R950E): 11.2 ± 2.7 µM | dH (EphA2 SAM domain R950E): -7.5 kcal/mol
B6: SHIP2 SAM domain H1219E (domain or fragment, human, UniProt O15357 1192-1258, looked up)
chain: B1 chain with H28E
